Results from patent US20100068186A1 (published 2010).

Molecular target: T1, catalytic sub-unit of the Telomerase protein peptide on HLA-A*02:01 (human)
T1 peptide: ILAKFLHWL
Test: Kd or kinetics

B1: TCR of SEQ ID NOs 15 and 23 (TCR, V domains shown)
Valpha: GIQVEQSPPDLILQEGANSTLRCNFSDSVNNLQWFHQNPWGQLINLFYIPSGTKQNGRLSATTVATERYSLLYISSSQTTDSGVYFCAVDSATTGMFGYIFGTGTRLKVLA
Vbeta: NAGVTQTPKFQVLKTGQSMTLQCAQDMNHEYMSWYRQDPGMGLRLIHYSVGAGITDQGEVPNGYNVSRSTTEDFPLRLLSAAPSQTSVYFCGIQPQGTEAFFGQGTRLTVV
binding result: recognises

B2: TCR of SEQ ID NOs 21 and 65 (TCR, V domains shown)
Valpha: GIQVEQSPPDLILQEGANSTLRCNFSDSVNNLQWFHQNPWGQLINLFYIPSGTKQNGRLSATTVATERYSLLYISSSQTTDSGVYFCAVDSATSGMFGYIFGTGTRLKVLA
Vbeta: NAGVTQTPKFQVLKTGQSMTLQCAQDMNHEYMSWYRQDPGMGLRLIHYSRWVGDTDQGEVPNGYNVSRSTTEDFPLRLLSAAPSQTSVYFCGVQPQGTEAFFGQGTRLTVV
binding result: recognises

B3: TCR of SEQ ID NOs 15 and 66 (TCR, V domains shown)
Valpha: GIQVEQSPPDLILQEGANSTLRCNFSDSVNNLQWFHQNPWGQLINLFYIPSGTKQNGRLSATTVATERYSLLYISSSQTTDSGVYFCAVDSATTGMFGYIFGTGTRLKVLA
Vbeta: NAGVTQTPKFQVLKTGQSMTLQCAQDMNHEYMSWYRQDPGMGLRLIHYSRWVGDTDQGEVPNGYNVSRSTTEDFPLRLLSAAPSQTSVYFCGIQPQGTEAFFGQGTRLTVV
binding result: recognises

B4: TCR of SEQ ID NOs 15 and 68 (TCR, V domains shown)
Valpha: GIQVEQSPPDLILQEGANSTLRCNFSDSVNNLQWFHQNPWGQLINLFYIPSGTKQNGRLSATTVATERYSLLYISSSQTTDSGVYFCAVDSATTGMFGYIFGTGTRLKVLA
Vbeta: NAGVTQTPKFQVLKTGQSMTLQCAQDMNHEYMSWYRQDPGMGLRLIHYSIWEFETDQGEVPNGYNVSRSTTEDFPLRLLSAAPSQTSVYFCGIQPQGTEAFFGQGTRLTVV
binding result: recognises

B5: TCR of SEQ ID NOs 15 and 70 (TCR, V domains shown)
Valpha: GIQVEQSPPDLILQEGANSTLRCNFSDSVNNLQWFHQNPWGQLINLFYIPSGTKQNGRLSATTVATERYSLLYISSSQTTDSGVYFCAVDSATTGMFGYIFGTGTRLKVLA
Vbeta: NAGVTQTPKFQVLKTGQSMTLQCAQDMNHEYMSWYRQDPGMGLRLIHYSICWGCTDQGEVPNGYNVSRSTTEDFPLRLLSAAPSQTSVYFCGVQPQGTEAFFGQGTRLTVV
binding result: recognises

B6: TCR of SEQ ID NOs 15 and 69 (TCR, V domains shown)
Valpha: GIQVEQSPPDLILQEGANSTLRCNFSDSVNNLQWFHQNPWGQLINLFYIPSGTKQNGRLSATTVATERYSLLYISSSQTTDSGVYFCAVDSATTGMFGYIFGTGTRLKVLA
Vbeta: NAGVTQTPKFQVLKTGQSMTLQCAQDMNHEYMSWYRQDPGMGLRLIHYSIWEFETDQGEVPNGYNVSRSTTEDFPLRLLSAAPSQTSVYFCGVQPQGTEAFFGQGTRLTVV
binding result: recognises
